Data as given in the supplement of paper PMC9732359.
± gives the uncertainty stated by the source.

Experiment: protein stability index of a GFP-peptide fusion (yeast GPS) (PSI 1-4); higher = more stable; sorted into four equal gates, so the index is relative within each strain
In short: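 Mid-log yeast cultures in leucine-free medium, carrying a pooled plasmid library, were sorted into four equal gates by their GFP/Cherry fluorescence ratio. Each plasmid expressed Cherry along with GFP fused upstream of a tiled 17-residue yeast protein peptide. Plasmids recovered from each gate were PCR-amplified and Illumina-sequenced, with reads assigned to strains by barcodes. The protein stability index was obtained by summing each gate's read frequency weighted by its gate number.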

Row | Sequence | protein stability index (doa10∆) | protein stability index (pdr5∆) | protein stability index (san1∆) | protein stability index (ubr1∆)
1 | TFIYFAYFLIIVPVIST [COB] | 1.68 ± 0.05 | 1.3 ± 0.046 | 1.16 ± 0.087 | 1.1 ± 0.027
2 | AQTIGRNSKTVREFLEK [PRE6] | 2.76 ± 0.2 | 3.27 ± 0.29 | 3.29 ± 0.07 | 3.02 ± 0.14
3 | NVSENQPWQMDTNNEAD [SNF12] | 3.11 ± 0.052 | 3.26 ± 0.064 | 3.17 ± 0.042 | 3.25 ± 0.04
4 | NTFVTRLNNVFVIGEQG [RPS4A] | 3.29 ± 0.096 | 2.89 ± 0.09 | 3.22 ± 0.13 | 3.16 ± 0.094
5 | FLLKAYINVSRGTDIDR [SRB5] |  |  |  | 3.08 ± 0.22
6 | PRLSHLSLTAVPSFLRP [GRR1] | 2.09 ± 0.042 | 1.93 ± 0.062 | 1.79 ± 0.074 | 2.18 ± 0.045
7 | RIDAFNALEHKYFTESD [SSN3] | 2.72 ± 0.055 | 3 ± 0.046 | 2.95 ± 0.05 | 3.05 ± 0.052
8 | HKLVFVVRIKGINKIPP [RPL7A] | 1.4 ± 0.038 | 1.57 ± 0.046 | 1.52 ± 0.094 | 1.64 ± 0.053
9 | SLAKSSALWSSRKGIAF [ECM29] | 1.9 ± 0.069 | 1.88 ± 0.14 | 1.83 ± 0.12 | 1.59 ± 0.15
10 | IKNISNRVGLTLDNIDD [ARP9] | 2.65 ± 0.24 | 3.03 ± 0.11 | 3.16 ± 0.091 | 3.32 ± 0.073
11 | AELDDCRGVSENVILGQ [RPO21] | 3.64 ± 0.14 | 3.68 ± 0.16 | 3.24 ± 0.07 | 3.56 ± 0.2
12 | ENRKKDESDSENDIEIK [YLR335W/NUP2] | 2.68 ± 0.1 | 2.23 ± 0.15 | 1.65 ± 0.12 | 2.73 ± 0.082
13 | LAKKWFLQHPDEEYPVK [PRP8] | 3.23 ± 0.14 | 3.15 ± 0.15 | 3.26 ± 0.094 | 2.89 ± 0.16
14 | ADNKEDVKKPFSFGTSQ [YLR335W/NUP2] | 3.42 ± 0.1 | 3.09 ± 0.096 | 2.75 ± 0.16 | 3.13 ± 0.099
15 | PKNKLVPTLEAKRDYII [FAS1] | 1.71 ± 0.071 | 1.59 ± 0.1 | 2.63 ± 0.098 | 2.15 ± 0.11
16 | RALFETKLNLHCVIEDD [RRI1] | 2.36 ± 0.11 | 2.8 ± 0.071 | 2.8 ± 0.057 | 2.29 ± 0.1
17 | ADESKMAKLNECPLDPG [RET1] | 2.64 ± 0.083 | 2.74 ± 0.095 | 2.85 ± 0.082 | 2.08 ± 0.079
18 | YKQAMNETSEQLVPIRL [SNF5] | 3.23 ± 0.16 | 3.12 ± 0.15 | 3.08 ± 0.22 | 3.43 ± 0.12
19 | KKRKAGRPRGRPKKVKL [SNF2] |  | 3.09 ± 0.12 | 2.96 ± 0.21 | 2.9 ± 0.11
20 | DNKMDSVKEDVKNNQEL [SMC4] | 2.85 ± 0.14 | 3.02 ± 0.084 | 2.51 ± 0.17 | 3.36 ± 0.14
21 | SNIPNLLRNLESKMRQQ [YDL088C/ASM4] | 3.15 ± 0.11 | 2.84 ± 0.086 | 2.97 ± 0.12 | 3.07 ± 0.062
22 | MEKESVYNLALKCAERQ [NUT1] |  | 2.1 ± 0.26 | 2.91 ± 0.21 | 
23 | EKLLQQDREITNWARTT [MED8] | 2.37 ± 0.09 | 1.77 ± 0.087 | 2.48 ± 0.089 | 2.06 ± 0.11
24 | LVKDRKFLREVFVDGEA [RPO21] | 3.1 ± 0.14 | 3.46 ± 0.27 | 2.62 ± 0.1 | 2.85 ± 0.21
25 | HKMSMMAHRVKVIPYST [RPO21] | 2.47 ± 0.065 | 2.64 ± 0.062 | 2.82 ± 0.079 | 2.44 ± 0.084
26 | IELKTDWVRFLALALGI [RPN1] | 1.38 ± 0.13 | 1.37 ± 0.077 | 1.41 ± 0.12 | 1.13 ± 0.067
27 | GIRIKGKIVGFDEFMNV [SME1] | 3.15 ± 0.068 | 2.96 ± 0.098 | 3.23 ± 0.076 | 3.12 ± 0.099

Row | Sequence | protein stability index (doa10∆) | protein stability index (pdr5∆) | protein stability index (san1∆) | protein stability index (ubr1∆)
28 | NLLSKRNQEKKMEKKKS [SNM1] | 3.09 ± 0.16 | 3.38 ± 0.28 |  | 
29 | KSIRKDTVEEKKEEKLN [SIR4] | 2.96 ± 0.088 | 3.2 ± 0.12 | 3.17 ± 0.065 | 2.76 ± 0.091
30 | TKFQTTDRESYPRLQDP [YCS4] | 3 ± 0.072 | 3.15 ± 0.055 | 3.13 ± 0.079 | 3.05 ± 0.074
31 | PTLVRSVISGNLSLYEA [CSN12] | 2.92 ± 0.085 | 3.05 ± 0.092 | 3.06 ± 0.068 | 2.91 ± 0.054
32 | PLPLDLNVQVWHIEETG [ITC1] | 1.87 ± 0.063 | 2.17 ± 0.059 | 2.18 ± 0.089 | 2.17 ± 0.071
33 | YAKDILQKEFLPHITQL [RPB2] | 1.76 ± 0.047 | 1.8 ± 0.04 | 1.4 ± 0.065 | 1.38 ± 0.031
34 | QIIVTDGKLEPSTRSNF [YJL039C/NUP192] | 2.38 ± 0.099 | 3.13 ± 0.13 | 2.88 ± 0.11 | 3.32 ± 0.18
35 | VEETEVPTVPPSQSEEQ [MED4] | 2.73 ± 0.079 | 2.69 ± 0.1 | 2.43 ± 0.13 | 2.74 ± 0.055
36 | KNNLLIPDLSIQNDIYL [RPN12] | 2.93 ± 0.046 | 3.02 ± 0.038 | 2.98 ± 0.035 | 2.92 ± 0.047
37 | NNSTSNANTVFSERAAM [SWI1] | 2.63 ± 0.06 | 3.27 ± 0.097 | 2.97 ± 0.062 | 3.24 ± 0.089
38 | GRETILSNFNADINLEE [SIR3] | 3.14 ± 0.094 | 3.17 ± 0.11 | 2.85 ± 0.067 | 2.99 ± 0.07
39 | IYNKMIGVLNNSSESDE [RPN13] | 2.74 ± 0.14 | 3.12 ± 0.12 | 2.94 ± 0.06 | 2.94 ± 0.067
40 | VHRDDPALVGKLRGDLR [SNF6] | 3.36 ± 0.083 | 3.2 ± 0.088 | 2.7 ± 0.092 | 2.88 ± 0.071
41 | GMRVGVDRSKYNIELPL [RPT1] |  |  | 3.52 ± 0.16 | 
42 | IKKFAKLHMGTDDVRLA [RPL31A] | 1.7 ± 0.037 | 1.32 ± 0.042 | 1.24 ± 0.064 | 1.58 ± 0.037
43 | GHVGSVQISNIPDIGDL [PRP8] | 3.11 ± 0.067 | 2.95 ± 0.053 | 2.79 ± 0.058 | 3.03 ± 0.046
44 | ILDGQDVEENRSEFIES [YJR042W/NUP85] | 3.13 ± 0.09 | 3.2 ± 0.071 | 3.48 ± 0.072 | 3.27 ± 0.038
45 | SSSIKSTGPTGAVSLNP [RRP4] | 3.24 ± 0.035 | 3.37 ± 0.048 | 3.231 ± 0.027 | 3.151 ± 0.031
46 | ESSHEQEEFVQFLQLDN [ECM29] | 3.5 ± 0.21 | 3.31 ± 0.13 | 3.22 ± 0.16 | 3.29 ± 0.14
47 | EPEEEKSKREEEAKSVL [ARP9] | 3.15 ± 0.27 | 3.53 ± 0.29 |  | 3.25 ± 0.17
48 | LFQRQKLHEFYLLISKE [IRR1] | 2.69 ± 0.12 | 2.97 ± 0.076 | 2.63 ± 0.061 | 2.87 ± 0.12
49 | EGKSVDELITEGNEKLA [RPP2A] |  | 3.23 ± 0.16 | 3.41 ± 0.074 | 3.45 ± 0.28
50 | SDDYDNEGAASSNPQSA [SMC1] | 2.91 ± 0.16 | 3.42 ± 0.13 | 2.65 ± 0.12 | 3.13 ± 0.051
51 | IIRQLSELNEGNLSKRE [SRB8] | 3.18 ± 0.12 | 3.53 ± 0.11 | 3.4 ± 0.1 | 3.42 ± 0.27
52 | SSNILEDILYYSTCPSE [SRB8] | 2.4 ± 0.1 | 2.4 ± 0.075 | 2.77 ± 0.059 | 2.54 ± 0.062
53 | NSSNYAELFNNDIKLFV [PRP8] | 2.44 ± 0.041 | 2.48 ± 0.036 | 2.26 ± 0.048 | 2.27 ± 0.029
